US20170007595A1, “NSD3 INHIBITORS FOR TREATMENT OF CANCERS” (THE BRIGHAM AND WOMEN'S HOSPITAL, INC., priority 2014, published 2017)

B1: ET domain: BRD4 ET domain containing fragment (BRD4 444-722) with N-terminal SV40 NLS, FLAG-tagged, tet-inducibly expressed (protein)
chain: KLQDVFEMRFAKMPDEPEEPVVAVSSPAVPPPTKVVAPPSSSDSSSDSSSDSDSSTDDSEEERAQRLAELQEQLKAVHEQLAALSQPQQNKPKKKEKDKKEKKKEKHKRKEEVEENKKSKAKEPPPKKTKKNNSSNSNVSRKEPAPMKSKPPPTYESEEEDKCKPMSYEEKRQLSLDINLPGEKLGRVVHIIQSREPSLKNSNPDEIEIDFETLKPSTLRELERYVTSCLRKKRKPQAEICVDVIAGSSKMKGFSSSESESSSESSSSDSEDSETEMAP
modifications: left off: small tags and cut ends
notes: BRD4 ET domain containing fragment (BRD4 444-722) with N-terminal SV40 NLS, FLAG-tagged, tet-inducibly expressed
B2: NSD3Tr: portion of NSD3 present in NSD3-NUT, amino acids 1-569 of NSD3, HA- or BioTAP-tagged, inducibly expressed (protein)
chain: MDFSFSFMQGIMGNTIQQPPQLIDSANIRQEDAFDNNSDIAEDGGQTPYEATLQQGFQYPATTEDLPPLTNGYPSSISVYETQTKYQSYNQYPNGSANGFGAVRNFSPTDYYHSEIPNTRPHEILEKPSPPQPPPPPSVPQTVIPKKTGSPEIKLKITKTIQNGRELFESSLCGDLLNEVQASEHTKSKHESRKEKRKKSNKHDSSRSEERKSHKIPKLEPEEQNRPNERVDTVSEKPREEPVLKEEAPVQPILSSVPTTEVSTGVKFQVGDLVWSKVGTYPWWPCMVSSDPQLEVHTKINTRGAREYHVQFFSNQPERAWVHEKRVREYKGHKQYEELLAEATKQASNHSEKQKIRKPRPQRERAQWDIGIAHAEKALKMTREERIEQYTFIYIDKQPEEALSQAKKSVASKTEVKKTRRPRSVLNTQPEQTNAGEVASSLSSTEIRRHSQRRHTSAEEEEPPPVKIAWKTAAARKSLPASITMHKGSLDLQKCNMSPVVKIEQVFALQNATGDGKFIDQFVYSTKGIGNKTEISVRGQDRLIISTPNQRNEKPTQSVSSPEATSGST
modifications: left off: large carriers; small tags and cut ends
notes: portion of NSD3 present in NSD3-NUT, amino acids 1-569 of NSD3, HA- or BioTAP-tagged, inducibly expressed

Tests used:
[1] = test system: U2OS cells; experiment: luminescent cell viability assay (CellTiter-Glo), U2OS; type: cell-based; settings: induced ET domain expression for 120 h
Method: (§1) Cells were plated at a density of 3000 per well in a 96-well plate, and CellTiter-Glo (Promega, Madison, Wis.) was used to determine cell viability as a measure of ATP content according to the manufacturer's instructions.

[2] = test system: 797TRex cells; experiment: luminescent cell viability assay (CellTiter-Glo), 797TRex; type: cell-based, human; settings: induced ET domain expression for 120 h
Method: as §1

[3] = test system: 293T cells; experiment: luminescent cell viability assay (CellTiter-Glo), 293T; type: cell-based; settings: induced ET domain expression for 120 h
Method: as §1

[4] = test system: 797TRex cells; experiment: differentiation of 797TRex cells on induced expression of construct (involucrin immunoblot, H&E, IHC); type: cell-based, human; settings: induced expression for 120 h
Description: BRD4 ET domain containing fragment (BRD4 444-722) was cloned into pcDNA5 FRT/TO-FLAG (Invitrogen) with an N-terminal SV40 NLS sequence to generate pcDNA5 FRT/TO-Flag-NLS-BRD4-ET (p6894). MSCV-CMV-Flag-HA-NSD3 (p6351) has been described previously (8). To make tetracycline-inducible N- and C-terminal BioTAP-tagged constructs, the inventors transferred the gateway destination cassette from pHAGE-TRE (gift of Steven Elledge) to the pcDNA5 frt/to mammalian expression vector with N-terminal BioTAP tandem tag to make pcDNA5 frt/to-DEST-NBioTAP. NSD3-NUT was constructed by fusion PCR into pDONR223, then transferred into the pcDNA5 frt/to-DEST-NBioTAP vector by gateway cloning. Full length NSD3, NSD3Tr encoding amino acids 1-569 of NSD3, full length NUT, BRD4-NUT (derived from pcDNA5 frt/to FLAG-BRD4-NUT (17)) were PCR-cloned into pDONR223, then transferred by gateway cloning into the pHAGE-P CMVt N-HA GAW expression vector derived from the PHAGE lentiviral vector (52).
NMC cell lines, TC-797 (15) 10-15 (6), 8645(17), 293T, U205, and C33A cells were maintained as monolayer cultures in Dulbecco Modified Eagle medium (DMEM) (Invitrogen) supplemented with 10% (v/v) Fetal Bovine Serum (FBS, SH3008803, Hyclone) and 1% pen-strep (GIBCO/Invitrogen). […]

[5] = molecular target: T1, BRD4 (Homo sapiens, UniProt O60885); experiment: anti-HA co-immunoprecipitation in C33A-6TR cells; type: binding; settings: HA-tagged construct, C33A cervical carcinoma cells
T1 construct: endogenous in cells; host or cells: C33A-6TR (tet-repressor-positive C33A cervical carcinoma cells)
Method: For co-immunoprecipitation experiments of HA-tagged proteins, C33A-6TR cells stably expressing HA-tagged constructs under a Tet-inducible promoter were used. Protein extracts were prepared 24 h after transfection or induction with Doxycycline (1 μg/ml). Cells were lysed in lysis buffer (50 mM Tris-HCl [pH 7.5], 150 mM NaCl, 0.5% Nonidet P-40) with freshly added protease inhibitors (Roche Complete, EDTA free protease inhibitor cocktail, Roche, Indianapolis, Ind.). Extracts were adjusted for protein concentration and 10% of extracts were used as Input Immunoprecipitations were performed using 15 μl of HA-resin (Sigma A2095). Extracts were incubated overnight at 4° C., and precipitated proteins were detected by Western blot analysis.

[6] = molecular target: T2, BRD4-NUT foci (Homo sapiens, UniProt O60885+Q86Y26); experiment: immunofluorescence co-localization in 797TRex cells; type: cell-based; settings: HA-tagged, induced 24 h
T2 construct: composed of the N-terminal of BRD4 (amino acids 1-720 out of 1372); endogenous in cells; host or cells: 797TRex cells (tet-inducible derivative of the BRD4-NUT-positive NMC line TC-797)
Method: Immunofluorescence on TC-797 cells was performed as described (55) and nuclei were counterstained with ProLong® Gold antifade reagent with 4′,6-diamidino-2-phenylindole (DAPI) (Life Technologies). Primary antibodies used were anti-NUT (1:1000, rabbit monoclonal clone C52, Cell Signaling Technology), and anti-HA (1:500, mouse monoclonal, Sigma-Aldrich). Secondary antibodies included goat anti-rabbit Alexa Fluor 594 and goat anti-mouse Alexa Fluor 488 (1:1000, Life Technologies, Grand Island, N.Y.). Photos were taken on a Nikon Eclipse E600 fluorescent microscope (Melville, N.Y.) using a Spot RTSlider camera (Diagnostic Instruments, Inc., Sterling Heights, Mich.), and Spot Advanced software (Diagnostic Instruments, Inc.).

Molecule | growth (cell viability, CellTiter-Glo) [1] | proliferation rate (cell viability, CellTiter-Glo) [2] | growth (cell viability, CellTiter-Glo) [3] | differentiation (morphology, involucrin) [4] | co-immunoprecipitation of BRD4 [5] | co-localization with BRD4-NUT foci [6]
B1 | unaffected | negatively affected the proliferation rate | unaffected | inducing differentiation morphologically and immunophenotypically | – | –
B2 | – | – | – | found to induce differentiation | co-immunoprecipitated BRD4 | co-localized with BRD4-NUT foci
